In this assay the target is T1, MBP-BirA fusion (E. coli biotin ligase / biotin holoenzyme synthetase with N-terminal maltose binding protein) (E. coli, UniProt P0AEX9 27-392 = MBP; P06709 1-321, limits assumed).
T1 construct: also called BHS
Put plainly: phage ELISA on plate-coated MBP-BirA, anti-M13-HRP detection. A general note: An ELISA detects its analyte on a solid surface through an enzyme-linked reagent.

The values that follow come from US20050048548A1 (NEW ENGLAND BIOLABS, published 2005).

B1: non-displaying M13 phage (no insert), without selenocysteine (other, bacteriophage M13, UniProt P69168 19-424, looked up)
chain: AETVESCLAKPHTENSFTNVWKDDKTLDRYANYEGCLWNATGVVVCTGDETQCYGTWVPIGLAIPENEGGGSEGGGSEGGGSEGGGTKPPEYGDTPIPGYTYINPLDGTYPPGTEQNPANPNPSLEESQPLNTFMFQNNRFRNRQGALTVYTGTVTQGTDPVKTYYQYTPVSSKAMYDAYWNGKFRDCAFHSGFNEDPFVCEYQGQSSDLPQPPVNAGGGSGGGSGGGSEGGGSEGGGSEGGGSEGGGSGGGSGSGDFDYEKMANANKGAMTENADENALQSDAKGKLDSVATDYGAAIDGFIGDVSGLANGNGATGDFAGSNSQMAQVGDGDNSPLMNNFRQYLPSLPQSVECRPFVFSAGKPYEFSIDCDKINLFRGVFAFLLYVATFMYVFSTFANILRNKES
notes: Control; whole phage, applied both after treatment with the biotinylating reagent and untreated; also called non-displaying phage
B1: the binding result is “no binding”.
